What all share (test): UV crosslinking
One data set has as its target T1, MSL2 (Drosophila melanogaster, UniProt P50534 1-773).
T1 sequence: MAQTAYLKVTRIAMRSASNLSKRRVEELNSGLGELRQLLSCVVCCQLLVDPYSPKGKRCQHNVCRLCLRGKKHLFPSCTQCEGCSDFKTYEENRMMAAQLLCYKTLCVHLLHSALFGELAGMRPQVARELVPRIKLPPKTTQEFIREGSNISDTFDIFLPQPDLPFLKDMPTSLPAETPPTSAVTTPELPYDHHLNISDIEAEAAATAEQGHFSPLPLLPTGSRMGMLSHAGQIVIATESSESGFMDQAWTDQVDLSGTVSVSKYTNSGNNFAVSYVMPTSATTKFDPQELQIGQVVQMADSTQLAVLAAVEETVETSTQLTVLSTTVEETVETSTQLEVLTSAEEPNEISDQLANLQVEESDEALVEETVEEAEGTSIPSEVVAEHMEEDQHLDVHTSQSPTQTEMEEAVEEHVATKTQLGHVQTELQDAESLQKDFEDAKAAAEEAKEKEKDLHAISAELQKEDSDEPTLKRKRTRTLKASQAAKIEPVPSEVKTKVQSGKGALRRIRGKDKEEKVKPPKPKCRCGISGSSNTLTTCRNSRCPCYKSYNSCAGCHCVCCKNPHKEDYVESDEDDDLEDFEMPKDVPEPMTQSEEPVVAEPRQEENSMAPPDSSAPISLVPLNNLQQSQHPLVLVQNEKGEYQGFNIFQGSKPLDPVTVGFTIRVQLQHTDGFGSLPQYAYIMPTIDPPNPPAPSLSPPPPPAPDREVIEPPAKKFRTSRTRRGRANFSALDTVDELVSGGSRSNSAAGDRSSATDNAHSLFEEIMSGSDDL

For the next data set, the target named is T2, MSL1 (Drosophila melanogaster, UniProt P50535 1-1039).
T2 sequence: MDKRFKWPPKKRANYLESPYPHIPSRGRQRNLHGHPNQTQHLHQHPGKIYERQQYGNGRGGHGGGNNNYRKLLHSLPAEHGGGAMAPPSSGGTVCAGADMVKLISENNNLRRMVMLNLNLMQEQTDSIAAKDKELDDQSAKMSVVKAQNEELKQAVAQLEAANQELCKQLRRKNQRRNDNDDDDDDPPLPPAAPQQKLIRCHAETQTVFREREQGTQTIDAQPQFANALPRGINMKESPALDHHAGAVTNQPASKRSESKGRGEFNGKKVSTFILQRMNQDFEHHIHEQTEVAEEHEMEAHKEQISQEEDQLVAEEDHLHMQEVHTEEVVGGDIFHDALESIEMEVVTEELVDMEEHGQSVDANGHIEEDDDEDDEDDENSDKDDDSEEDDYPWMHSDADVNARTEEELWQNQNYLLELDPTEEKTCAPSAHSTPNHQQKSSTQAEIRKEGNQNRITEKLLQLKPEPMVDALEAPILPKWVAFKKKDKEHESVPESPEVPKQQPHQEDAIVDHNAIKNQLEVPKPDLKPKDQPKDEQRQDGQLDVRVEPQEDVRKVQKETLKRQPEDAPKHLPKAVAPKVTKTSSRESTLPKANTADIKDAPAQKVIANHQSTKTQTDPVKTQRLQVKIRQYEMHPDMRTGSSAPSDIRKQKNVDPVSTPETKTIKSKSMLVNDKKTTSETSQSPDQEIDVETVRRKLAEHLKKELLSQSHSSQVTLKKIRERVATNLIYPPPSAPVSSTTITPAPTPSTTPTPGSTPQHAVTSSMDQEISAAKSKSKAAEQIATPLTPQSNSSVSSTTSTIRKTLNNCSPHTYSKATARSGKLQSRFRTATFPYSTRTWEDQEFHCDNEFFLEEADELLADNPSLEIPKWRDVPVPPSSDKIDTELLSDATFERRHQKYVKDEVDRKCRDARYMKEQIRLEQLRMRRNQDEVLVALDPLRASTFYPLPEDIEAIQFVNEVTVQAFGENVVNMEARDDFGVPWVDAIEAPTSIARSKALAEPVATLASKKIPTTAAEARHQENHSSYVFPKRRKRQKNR

Data set [1] concerns the target T3, DCCcore (MSL1-MSL2-MSL3-MOF) (Drosophila melanogaster, UniProt P50535;P50534;P50536;O02193 1-1039;1-773;1-512;1-827).
Data set [2] addresses T3, DCCcore (MSL1-MSL2-MSL3-MOF). The source holds these as a separate data set.

Like-named read-outs stand apart in the source and are kept apart here.

T3 sequence (P50536 whole entry, chain 3 of 2): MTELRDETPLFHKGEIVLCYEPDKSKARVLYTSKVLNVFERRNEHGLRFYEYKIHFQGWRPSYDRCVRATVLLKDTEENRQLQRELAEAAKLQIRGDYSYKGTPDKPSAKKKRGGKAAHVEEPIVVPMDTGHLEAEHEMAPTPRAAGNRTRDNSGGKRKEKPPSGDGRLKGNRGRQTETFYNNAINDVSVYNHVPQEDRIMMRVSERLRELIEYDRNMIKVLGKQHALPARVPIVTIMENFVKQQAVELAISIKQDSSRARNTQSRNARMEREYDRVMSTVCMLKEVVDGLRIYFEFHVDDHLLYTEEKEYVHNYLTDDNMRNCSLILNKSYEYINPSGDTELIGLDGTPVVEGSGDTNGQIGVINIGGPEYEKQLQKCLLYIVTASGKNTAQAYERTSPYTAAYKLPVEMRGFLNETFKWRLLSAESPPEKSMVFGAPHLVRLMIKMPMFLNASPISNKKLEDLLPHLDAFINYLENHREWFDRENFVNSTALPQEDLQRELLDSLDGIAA
T3 sequence (O02193 whole entry, chain 4 of 2): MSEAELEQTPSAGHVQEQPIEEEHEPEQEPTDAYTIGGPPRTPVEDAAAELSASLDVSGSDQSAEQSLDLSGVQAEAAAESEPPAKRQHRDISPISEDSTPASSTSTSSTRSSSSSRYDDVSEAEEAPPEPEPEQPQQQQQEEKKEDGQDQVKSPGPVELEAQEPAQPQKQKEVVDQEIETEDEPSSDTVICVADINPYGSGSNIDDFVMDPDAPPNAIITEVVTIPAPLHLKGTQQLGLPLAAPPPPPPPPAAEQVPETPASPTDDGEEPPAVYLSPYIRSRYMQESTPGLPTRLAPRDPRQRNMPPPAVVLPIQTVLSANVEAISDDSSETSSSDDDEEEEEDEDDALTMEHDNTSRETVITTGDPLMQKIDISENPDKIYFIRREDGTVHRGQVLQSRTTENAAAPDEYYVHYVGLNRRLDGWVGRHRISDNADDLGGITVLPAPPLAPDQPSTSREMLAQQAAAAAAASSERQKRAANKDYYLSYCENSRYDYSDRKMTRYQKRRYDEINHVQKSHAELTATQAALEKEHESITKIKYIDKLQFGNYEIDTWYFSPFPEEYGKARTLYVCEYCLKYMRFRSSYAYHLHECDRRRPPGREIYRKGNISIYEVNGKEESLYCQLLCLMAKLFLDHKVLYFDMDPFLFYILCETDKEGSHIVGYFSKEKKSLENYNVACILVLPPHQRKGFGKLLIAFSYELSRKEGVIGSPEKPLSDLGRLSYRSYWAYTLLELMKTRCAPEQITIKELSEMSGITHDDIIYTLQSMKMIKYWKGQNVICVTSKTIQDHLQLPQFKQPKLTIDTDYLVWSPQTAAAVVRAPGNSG

B1: roX2 SL7-3' (structured_RNA)
RNA: UGGGUAACGUUUUACGCGCCUU
For the molecule B1, the binding result (with MSL2; with MSL1; in data set [1]) was “binds” each time.

B2: roX2 SL7-Loop (structured_RNA)
RNA: AUUAAGCAAAUAUAUAUGCAUAUAU
Regarding B2, the binding result in data set [2] is reported as “no binding”.
